B1: Azoarcus group I ribozyme (parent)
chain: GUGCCUUGCGCCGGGAAACCACGCAAGGGAUGGUGUCAAAUUCGGCGAAACCUAAGCGCCCGCCCGGGCGUAUGGCAACGCCGAGCCAAGCUUCGGCGCCUGCGCCGAUGAAGGUGUAGAGACUAGACGGCACCCACCUAAGGCAAACGCUAUGGUGAAGGCAUAGUCCAGGGAGUGGCGAAAGUCACACAAACCGG

The values below come from the RNAGym collection of RNA variant scans (doi:10.1093/molbev/msab373).

In this data set the parent is B1. Nature of the data set: reverse-splicing fitness (ratio to wild type); higher = more active; in vitro selection; Mg2+ level not given. The method in brief:
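An in vitro group I ribozyme library with randomized positions was T7-transcribed and gel-purified. In triplicate, 10 pmol RNA in EPPS pH 7.5 was reacted with 50 pmoles of a 30-nt RNA substrate for 1 h at 37 °C across several added MgCl2 levels (1–48 mM), then stopped with EDTA. Products were reverse transcribed from a substrate-complementary primer, PCR-amplified and sequenced (HiSeq 4000). Fitness is a variant's read proportion after selection over that before, normalised to wild type.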
Regarding A111G A120U A145U C150A C169U U176A, the reverse-splicing fitness was 0.00329.
The result for A111G A120U A145U C150A C169A reads 0.00222; that for A111G A120U A145U C150A C169G, 0.00763; that for A111G A120U A145U C150A C169U, 0.0112.
Next, A111G A120U A145C U176C: 0.214.
Take A111G A120U A145C U176G: the reverse-splicing fitness stood at 0.131.
The result for A111G A120U A145C U176A reads 0.332; that for A111G A120U A145U C150A U176A, 0.0447; that for A111G A120U A145U C150A U176G, 0.018.
Next, A111G A120U A145U C150A U176C: 0.0372; A111G A120U C150G C169A: 0.00729; A111G A120U C150G C169G: 0.0111.
The result for A111G A120U C150G C169U reads 0.0103; that for A111G A120U A145G C150U C169G U176G, 0.00263.
With A111G A120U A145G C150U C169G U176C, the reverse-splicing fitness stood at 0.0118.
Take A111G A120U A145G C150U C169G U176A: the reverse-splicing fitness is 0.0113.
The result for A111G A120G C150G C169U reads 0.0264; that for A111G A120G C150G C169A, 0.0164; that for A111G A120G C150G C169G, 0.0259.
For the variant A111G A120U U176A, the reverse-splicing fitness was determined as 0.432.
The result for A111G A120U U176G reads 0.164; that for A111G A120U U176C, 0.445; that for A111G A120U C150U C169U, 0.0666.
The result for A111G A120U C150U C169A reads 0.00587.
The result for A111G A120U C150U C169G reads 0.0472; that for A111G A145C, 0.876; that for A111G A120U A145C C150A C169G U176A, 0.00272.
Turning to A111G A120U A145C C150A C169G U176C, the reverse-splicing fitness is 0.00181.
As for A111G A120U A145C C150A C169G U176G, the reverse-splicing fitness came to 0.00195.
For the variant A111G A120U A145U C150U C169U U176A, the reverse-splicing fitness was determined as 0.0131.
A111G A120U A145U C150U C169U U176C: the reverse-splicing fitness was determined as 0.0168.
A111G A120U A145U C150U C169U U176G: the reverse-splicing fitness amounted to 0.00321.
The result for A111G A120G C150A C169G reads 0.0355; that for A111G A120G C150A C169A, 0.0242.
The result for A111G A120G C150A C169U reads 0.0298; that for A111G A120U A145U U176C, 0.431.
Next, A111G A120U A145U U176A: 0.364.
For the variant A111G A120U A145U U176G, the reverse-splicing fitness is 0.15.
Next, A111G A120G C169G U176A: 0.09; A111G A120G C169G U176C: 0.119.
The result for A111G A120G C169G U176G reads 0.00692.
Next, A111G A120U A145C C169A U176C: 0.0018.
A111G A120U A145C C169A U176A: the reverse-splicing fitness was found to be 0.00226.
The result for A111G A120U A145C C169A U176G reads 0.0014; that for A111G A120U C150G U176G, 0.00318.
Next, A111G A120U C150G U176C: 0.0248; A111G A120U C150G U176A: 0.0102; A111G A145C C150A C169G U176A: 0.02.
On to A111G A145C C150A C169G U176G, for which the reverse-splicing fitness worked out at 0.00534.
For the variant A111G A145C C150A C169G U176C, the reverse-splicing fitness was found to be 0.0114.
The result for A111G A120U C150G C169U U176G reads 0.00256; that for A111G A120U C150G C169U U176C, 0.00437; that for A111G A120U C150G C169U U176A, 0.00346.
The result for A111G A120U A145C C150G C169G U176C reads 0.0019; that for A111G A120U A145C C150G C169G U176A, 0.00296.
As for A111G A120U A145C C150G C169G U176G, the reverse-splicing fitness worked out at 0.00213.
A111G A120U: the reverse-splicing fitness is 0.785.
The result for A111G A120U A145U C169U U176C reads 0.032; that for A111G A120U A145U C169U U176A, 0.0203.
The result for A111G A120U A145U C169U U176G reads 0.00399; that for A111G A120U C150A C169G U176C, 0.00454.
Consider A111G A120U C150A C169G U176A, for which the reverse-splicing fitness worked out at 0.00675.
Next, A111G A120U C150A C169G U176G: 0.00211; A111G A120G C150G U176A: 0.011; A111G A120G C150G U176C: 0.0173.
The result for A111G A120G C150G U176G reads 0.00356; that for A111G A120U C150U U176A, 0.23; that for A111G A120U C150U U176G, 0.0744.
In the case of A111G A120U C150U U176C, the reverse-splicing fitness came to 0.249.
For the variant A111G A120U A145U C150G C169U U176C, the reverse-splicing fitness was 0.00372.
The result for A111G A120U A145U C150G C169U U176A reads 0.00269; that for A111G A120U A145U C150G C169U U176G, 0.00216.
Next, A111G A120U C169A: 0.00619; A111G A120U C169U: 0.144; A111G A120U C169G: 0.103.
Regarding A111G A120U A145C C169A, the reverse-splicing fitness came out at 0.00532.
Take A111G A120U A145C C169U: the reverse-splicing fitness turned out to be 0.12.
Next, A111G A120U A145C C169G: 0.0842; A111G A120U A145U C150A C169A U176A: 0.00244.
Next, A111G A120U A145U C150A C169A U176G: 0.00207.
As to A111G A120U A145U C150A C169A U176C, the reverse-splicing fitness is 0.00238.
The result for A111G A120U A145U C150G C169A U176A reads 0.00281; that for A111G A120U A145U C150G C169A U176C, 0.00355; that for A111G A120U A145U C150G C169A U176G, 0.0022.
